Measurements published in US20140274874A1 (Amgen, published 2014).

T1: MMP2 (human pro-MMP2 activated with APMA) (human, UniProt P08253 30-660)
T1 sequence (looked up): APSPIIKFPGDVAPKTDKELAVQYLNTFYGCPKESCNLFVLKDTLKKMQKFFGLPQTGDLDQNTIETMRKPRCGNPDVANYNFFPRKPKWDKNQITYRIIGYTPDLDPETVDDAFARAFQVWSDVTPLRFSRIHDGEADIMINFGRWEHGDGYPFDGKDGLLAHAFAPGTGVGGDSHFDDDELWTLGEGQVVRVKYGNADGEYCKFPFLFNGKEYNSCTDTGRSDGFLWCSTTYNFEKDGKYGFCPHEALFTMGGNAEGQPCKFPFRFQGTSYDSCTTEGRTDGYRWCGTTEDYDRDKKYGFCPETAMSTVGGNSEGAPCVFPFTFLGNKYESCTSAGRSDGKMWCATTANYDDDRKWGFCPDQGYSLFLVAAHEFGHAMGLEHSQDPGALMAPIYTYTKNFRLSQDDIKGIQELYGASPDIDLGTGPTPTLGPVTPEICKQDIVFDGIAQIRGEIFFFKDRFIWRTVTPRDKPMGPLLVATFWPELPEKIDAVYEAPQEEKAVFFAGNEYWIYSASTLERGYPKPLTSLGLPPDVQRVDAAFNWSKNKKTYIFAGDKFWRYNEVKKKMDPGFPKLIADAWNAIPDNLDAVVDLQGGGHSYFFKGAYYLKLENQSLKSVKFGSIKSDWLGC


Tests used:
Test in all cases: cell-based or functional assay
[1] = target: catalytic domain of human MMP9 (human, UniProt P14780 107-444, limits assumed)
[2] = target: T1, MMP2 (human pro-MMP2 activated with …)
[3] = target: MMP13 (active MMP13, or pro-MMP-13 activated with APMA) (UniProt P45452 20-471, limits assumed)

Sequence of catalytic domain of human MMP9 (P14780 107-444 limits assumed): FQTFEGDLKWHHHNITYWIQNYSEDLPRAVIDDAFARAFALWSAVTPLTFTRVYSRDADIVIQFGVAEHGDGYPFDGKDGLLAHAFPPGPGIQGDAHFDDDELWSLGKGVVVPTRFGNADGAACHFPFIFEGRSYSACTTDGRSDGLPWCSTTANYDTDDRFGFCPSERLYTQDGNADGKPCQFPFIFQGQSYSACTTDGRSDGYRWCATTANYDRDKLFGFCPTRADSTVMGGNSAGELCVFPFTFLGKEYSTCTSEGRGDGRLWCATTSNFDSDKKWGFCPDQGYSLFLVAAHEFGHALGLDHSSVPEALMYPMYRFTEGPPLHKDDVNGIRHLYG

Binder	MMP9 IC50 [1] [nM]	MMP2 IC50 [2] [nM]	MMP13 IC50 [3] [nM]
wild-type TIMP-3 (native human tissue inhibitor of metalloproteinase 3) (other) CTCSPSHPQDAFCNSDIVIRAKVVGKKLVKEGPFGTLVYTIKQMKMYRGFTKMPHVQYIHTEASESLCGLKLEVNKYQYLLTGRVYDGKMYTGLCNFVERWDQLTLSQRKGLNYRYHLGCNCKIKSCYYLPCFVTSKNECLWTDMLSNFGYPGYQSKHYACIRQKGGYCSWYRGWAPPDKSIINATDP	1	0.6	0.9
TIMP-3 mutein K45S, F57N (other) CTCSPSHPQDAFCNSDIVIRASVVGKKLVKEGPNGTLVYTIKQMKMYRGFTKMPHVQYIHTEASESLCGLKLEVNKYQYLLTGRVYDGKMYTGLCNFVERWDQLTLSQRKGLNYRYHLGCNCKIKSCYYLPCFVTSKNECLWTDMLSNFGYPGYQSKHYACIRQKGGYCSWYRGWAPPDKSIINATDP	4	0.3	–
TIMP-3 mutein T63N, K65T (other) CTCSPSHPQDAFCNSDIVIRAKVVGKKLVKEGPFGTLVYNITQMKMYRGFTKMPHVQYIHTEASESLCGLKLEVNKYQYLLTGRVYDGKMYTGLCNFVERWDQLTLSQRKGLNYRYHLGCNCKIKSCYYLPCFVTSKNECLWTDMLSNFGYPGYQSKHYACIRQKGGYCSWYRGWAPPDKSIINATDP	0.5	0.8	2.2
TIMP-3 mutein F57N (other) CTCSPSHPQDAFCNSDIVIRAKVVGKKLVKEGPNGTLVYTIKQMKMYRGFTKMPHVQYIHTEASESLCGLKLEVNKYQYLLTGRVYDGKMYTGLCNFVERWDQLTLSQRKGLNYRYHLGCNCKIKSCYYLPCFVTSKNECLWTDMLSNFGYPGYQSKHYACIRQKGGYCSWYRGWAPPDKSIINATDP	4.6	0.5	0.5
TIMP-3 mutein P56N, G58T (other) CTCSPSHPQDAFCNSDIVIRAKVVGKKLVKEGNFTTLVYTIKQMKMYRGFTKMPHVQYIHTEASESLCGLKLEVNKYQYLLTGRVYDGKMYTGLCNFVERWDQLTLSQRKGLNYRYHLGCNCKIKSCYYLPCFVTSKNECLWTDMLSNFGYPGYQSKHYACIRQKGGYCSWYRGWAPPDKSIINATDP	2.3	1	3.1
